Legend:
[1] = molecular target: T1, PSMA胞外区蛋白 (重组表达的前列腺特异性膜抗原膜外区) (UniProt Q04609 44-750, limits assumed); experiment: indirect phage-ELISA, PSMA extracellular region coated at 5 μg/mL, HRP-anti-M13 detection (ELISA-positive clone)
T1 construct: extracellular domain; Expressed from vector pRAG2a in HEK-293 cells, purified with HisTrap FF Crude and detected with anti-His antibody, so it carries a His tag; also called PSMA蛋白; PSMA抗原

[2] = molecular target: T2, PSMA on LNCaP cells (前列腺癌细胞LNCaP表达PSMA) (UniProt Q04609 1-750, limits assumed); experiment: cell ELISA (HRP-anti-M13, OD450) and immunofluorescence (anti-M13 + FITC secondary) on fixed LNCaP cells versus PSMA-negative MKN45 cells
T2 construct: whole, on cells; Endogenous PSMA on fixed LNCaP cells; PSMA-negative MKN45 gastric cancer cells served as the negative cell line; also called 前列腺特异性膜抗原
T2 sequence (Q04609 whole entry): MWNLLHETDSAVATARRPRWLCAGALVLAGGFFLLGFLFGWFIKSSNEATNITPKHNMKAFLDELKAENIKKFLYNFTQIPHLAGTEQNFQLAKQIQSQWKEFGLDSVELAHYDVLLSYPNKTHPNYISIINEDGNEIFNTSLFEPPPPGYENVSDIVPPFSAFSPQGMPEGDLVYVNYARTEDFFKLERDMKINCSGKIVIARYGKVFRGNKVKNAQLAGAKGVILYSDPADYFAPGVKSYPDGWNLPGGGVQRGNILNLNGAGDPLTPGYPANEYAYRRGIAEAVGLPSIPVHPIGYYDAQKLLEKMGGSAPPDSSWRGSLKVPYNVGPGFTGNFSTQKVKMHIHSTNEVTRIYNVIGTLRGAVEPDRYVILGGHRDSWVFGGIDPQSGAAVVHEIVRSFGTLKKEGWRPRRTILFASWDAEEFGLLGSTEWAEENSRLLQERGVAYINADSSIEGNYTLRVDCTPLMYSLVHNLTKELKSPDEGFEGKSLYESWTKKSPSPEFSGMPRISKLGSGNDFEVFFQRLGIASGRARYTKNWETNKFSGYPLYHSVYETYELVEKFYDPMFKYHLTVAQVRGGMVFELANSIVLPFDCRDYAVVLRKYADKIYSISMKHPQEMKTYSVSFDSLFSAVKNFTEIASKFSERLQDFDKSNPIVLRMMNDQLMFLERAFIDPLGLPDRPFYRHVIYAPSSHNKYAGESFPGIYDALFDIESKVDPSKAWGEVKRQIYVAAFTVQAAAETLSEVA

T1 sequence (Q04609 44-750 limits assumed): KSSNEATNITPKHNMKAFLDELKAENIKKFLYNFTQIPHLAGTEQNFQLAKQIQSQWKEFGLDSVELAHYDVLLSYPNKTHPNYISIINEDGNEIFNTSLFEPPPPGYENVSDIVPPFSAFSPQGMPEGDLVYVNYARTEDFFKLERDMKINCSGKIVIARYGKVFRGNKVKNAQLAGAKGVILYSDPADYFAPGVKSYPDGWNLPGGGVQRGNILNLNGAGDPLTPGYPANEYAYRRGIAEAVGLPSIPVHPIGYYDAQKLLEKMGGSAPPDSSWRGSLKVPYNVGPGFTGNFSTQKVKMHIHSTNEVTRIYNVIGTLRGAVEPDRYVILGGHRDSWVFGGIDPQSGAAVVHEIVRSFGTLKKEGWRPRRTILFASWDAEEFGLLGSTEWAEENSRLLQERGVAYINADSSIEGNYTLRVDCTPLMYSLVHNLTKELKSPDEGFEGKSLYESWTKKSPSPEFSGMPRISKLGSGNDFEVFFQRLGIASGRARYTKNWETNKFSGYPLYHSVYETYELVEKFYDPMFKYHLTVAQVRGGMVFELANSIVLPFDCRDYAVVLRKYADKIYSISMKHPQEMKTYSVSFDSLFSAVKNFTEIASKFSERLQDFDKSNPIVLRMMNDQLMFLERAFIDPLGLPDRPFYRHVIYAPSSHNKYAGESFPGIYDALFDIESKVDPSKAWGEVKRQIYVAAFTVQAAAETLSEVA

B1: 抗前列腺特异性膜抗原单域重链抗体噬菌体阳性克隆 (VHH)
VHH: QVQLVESGGGLVQAGGSLRLSCVVSGRAFRRYAMGWFRQAPGKEREFVAAIRRSRSTYYADSVKGRFTISRDNAKKTVYLQMNSLKPEDTAVYYCAADPVDSVYNTLRAWGYWGQGTQVTVSS
notes: The phage coat protein fusion partner and any linker are not described; also called 针对前列腺特异性膜抗原的单域重链抗体阳性克隆; 展示本发明所述纳米抗体的噬菌体克隆
- binding result [1]: binds
- binding result [2]: binds

— patent CN105968202A (UNIV NANCHANG, dated 2016)
